# Reference: the Human Domainome abundance scans (Beltran et al. 2025)
# ± gives the uncertainty stated by the source.
# B1: Steroid hormone receptor ERR2, residues 100 to 176; numbered along this chain, O95718 (parent)
# chain: KRLCLVCGDIASGYHYGVASCEACKAFFKRTIQGNIEYSCPATNECEITKRRRKSCQACRFMKCLKVGMLKEGVRLD
# Variants of: B1
# Assay: abundance fitness (aPCA) (normalised: wild type 0, dead -1); higher = more abundant; growth selection in yeast, the domain comes from the species named
# Settings: Homo sapiens
row,Variant,abundance fitness
1,KRLCLVCGDIASGYHYGVASCEACKAFFKRTIQGNIEYSCPATNECEITKRRRKSCQACRFMKCKKVGMLKEGVRLD,-0.466 ± 0.085
2,KRLCLVCGDIASGYHYGVASCEACKAFFKRTIQGNIEYSCPATNECEITKRRRKSCQACRFMKCMKVGMLKEGVRLD,-0.175 ± 0.071
3,KRLCLVCGDIASGYHYGVASCEACKAFFKRTIQGNIEYSCPATNECEITKRRRKSCQACRFMKFLKVGMLKEGVRLD,-0.686 ± 0.21
4,KRLCLVCGDIASGYHYGVASCEACKAFFKRTIQGNIEYSCPATNECEITKRRRKSCQACRFMKVLKVGMLKEGVRLD,-0.836 ± 0.094
5,KRLCLVCGDIASGYHYGVASCEACKAFFKRTIQGNIEYSCPATNECEITKRRRKSCQACRFMKYLKVGMLKEGVRLD,-0.95 ± 0.26
6,KRLCLVCGDIASGYHYGVASCEACKAFFKRTIQGNIEYSCPATNECEITKRRRKSCQACRFMKPLKVGMLKEGVRLD,-0.747 ± 0.16
7,KRLCLVCGDIASGYHYGVASCEACKAFFKRTIQGNIEYSCPATNECEITKRRRKSCQACRFMKHLKVGMLKEGVRLD,-1.04 ± 0.4
8,KRLCLVCGDIASGYHYGVASCEACKAFFKRTIQGNIEYSCPATNECEITKRRRKSCQACRFMKNLKVGMLKEGVRLD,-0.483 ± 0.21
9,KRLCLVCGDIASGYHYGVASCEACKAFFKRTIQGNIEYSCPATNECEITKRRRKSCQACRFMKKLKVGMLKEGVRLD,-0.767 ± 0.2
10,KRLCLVCGDIASGYHYGVASCEACKAFFKRTIQGNIEYSCPATNECEITKRRRKSCQACRFMKGLKVGMLKEGVRLD,-0.582 ± 0.059
11,KRLCLVCGDIASGYHYGVASCEACKAFFKRTIQGNIEYSCPATNECEITKRRRKSCQACRFMKTLKVGMLKEGVRLD,-0.658 ± 0.15
12,KRLCLVCGDIASGYHYGVASCEACKAFFKRTIQGNIEYSCPATNECEITKRRRKSCQACRFMKILKVGMLKEGVRLD,-0.478 ± 0.2
13,KRLCLVCGDIASGYHYGVASCEACKAFFKRTIQGNIEYSCPATNECEITKRRRKSCQACRFMKELKVGMLKEGVRLD,-0.561 ± 0.092
14,KRLCLVCGDIASGYHYGVASCEACKAFFKRTIQGNIEYSCPATNECEITKRRRKSCQACRFMKSLKVGMLKEGVRLD,-0.396 ± 0.065
15,KRLCLVCGDIASGYHYGVASCEACKAFFKRTIQGNIEYSCPATNECEITKRRRKSCQACRFMKLLKVGMLKEGVRLD,-0.826 ± 0.1
16,KRLCLVCGDIASGYHYGVASCEACKAFFKRTIQGNIEYSCPATNECEITKRRRKSCQACRFMKRLKVGMLKEGVRLD,-0.751 ± 0.073
17,KRLCLVCGDIASGYHYGVASCEACKAFFKRTIQGNIEYSCPATNECEITKRRRKSCQACRFMKWLKVGMLKEGVRLD,-0.531 ± 0.083
18,KRLCLVCGDIASGYHYGVASCEACKAFFKRTIQGNIEYSCPATNECEITKRRRKSCQACRFMKMLKVGMLKEGVRLD,-0.273 ± 0.081

row,Variant,abundance fitness
1,KRLCLVCGDIASGYHYGVASCEACKAFFKRTIQGNIEYSCPATNECEITKRRRKSCQACRFMKDLKVGMLKEGVRLD,-1.05 ± 0.26
2,KRLCLVCGDIASGYHYGVASCEACKAFFKRTIQGNIEYSCPATNECEITKRRRKSCQACRFMKALKVGMLKEGVRLD,-0.301 ± 0.056
3,KRLCLVCGDIASGYHYGVASCEACKAFFKRTIQGNIEYSCPATNECEITKRRRKSCQACRFKKCLKVGMLKEGVRLD,0.141 ± 0.052
4,KRLCLVCGDIASGYHYGVASCEACKAFFKRTIQGNIEYSCPATNECEITKRRRKSCQACRFTKCLKVGMLKEGVRLD,0.106 ± 0.059
5,KRLCLVCGDIASGYHYGVASCEACKAFFKRTIQGNIEYSCPATNECEITKRRRKSCQACRFAKCLKVGMLKEGVRLD,0.013 ± 0.044
6,KRLCLVCGDIASGYHYGVASCEACKAFFKRTIQGNIEYSCPATNECEITKRRRKSCQACRFSKCLKVGMLKEGVRLD,0.148 ± 0.045
7,KRLCLVCGDIASGYHYGVASCEACKAFFKRTIQGNIEYSCPATNECEITKRRRKSCQACRFRKCLKVGMLKEGVRLD,-0.026 ± 0.036
8,KRLCLVCGDIASGYHYGVASCEACKAFFKRTIQGNIEYSCPATNECEITKRRRKSCQACRFIKCLKVGMLKEGVRLD,-0.148 ± 0.087
9,KRLCLVCGDIASGYHYGVASCEACKAFFKRTIQGNIEYSCPATNECEITKRRRKSCQACRFPKCLKVGMLKEGVRLD,-1.05 ± 0.21
10,KRLCLVCGDIASGYHYGVASCEACKAFFKRTIQGNIEYSCPATNECEITKRRRKSCQACRFGKCLKVGMLKEGVRLD,-0.059 ± 0.039
11,KRLCLVCGDIASGYHYGVASCEACKAFFKRTIQGNIEYSCPATNECEITKRRRKSCQACRFHKCLKVGMLKEGVRLD,-0.496 ± 0.16
12,KRLCLVCGDIASGYHYGVASCEACKAFFKRTIQGNIEYSCPATNECEITKRRRKSCQACRFCKCLKVGMLKEGVRLD,-1.07 ± 0.3
13,KRLCLVCGDIASGYHYGVASCEACKAFFKRTIQGNIEYSCPATNECEITKRRRKSCQACRFEKCLKVGMLKEGVRLD,0.086 ± 0.05
14,KRLCLVCGDIASGYHYGVASCEACKAFFKRTIQGNIEYSCPATNECEITKRRRKSCQACRFLKCLKVGMLKEGVRLD,-0.135 ± 0.048
15,KRLCLVCGDIASGYHYGVASCEACKAFFKRTIQGNIEYSCPATNECEITKRRRKSCQACRFVKCLKVGMLKEGVRLD,-0.006 ± 0.046
16,KRLCLVCGDIASGYHYGVASCEACKAFFKRTIQGNIEYSCPATNECEITKRRRKSCQACRFQKCLKVGMLKEGVRLD,0.04 ± 0.057
17,KRLCLVCGDIASGYHYGVASCEACKAFFKRTIQGNIEYSCPATNECEITKRRRKSCQACRFWKCLKVGMLKEGVRLD,-0.136 ± 0.051
18,KRLCLVCGDIASGYHYGVASCEACKAFFKRTIQGNIEYSCPATNECEITKRRRKSCQACRFDKCLKVGMLKEGVRLD,-0.057 ± 0.064
